Experimental data from paper PMC2662861, “An unexpected phosphate binding site in Glyceraldehyde 3-Phosphate Dehydrogenase: Crystal structures of apo, holo and ternary complex of Cryptosporidium parvum enzyme” (BMC Structural Biology, 2009).

Biological target: the molecule itself
Assay: crystal structure

Protein | stoichiometry N
Cryptosporidium parvum glyceraldehyde 3-phosphate dehydrogenase, wild type (enzyme, glyceraldehyde 3-phosphate dehydrogenase of Cryptosporidium parvum; Homotetramer; Crystallised as apoenzyme and, after incubation with 2 mM NAD, as holoenzyme; also called CpGAPDH; C. parvum GAPDH; source: E. coli, purified (Ni-NTA, SP Sepharose cation exchange, Superdex 200); not shown: His6, N-terminal, kept) MTATLGINGFGRIGRLVLRACMERNDITVVAINDPFMDVEYMAYLLKYDSVHGNFNGTVEVSGKDLCINGKVVKVFQAKDPAEIPWGASGAQIVCESTGVFTTEEKASLHLKGGAKKVIISAPPKDNVPMYVMGVNNTEYDPSKFNVISNASCTTNCLAPLAKIINDKFGIVEGLMTTVHSLTANQLTVDGPSKGGKDWRAGRCAGNNIIPASTGAAKAVGKVIPALNGKLTGMAIRVPTPDVSVVDLTCKLAKPASIEEIYQAVKEASNGPMKGIMGYTSDDVVSTDFIGCKYSSIFDKNACIALNDSFVKLISWYDNESGYSNRLVDLAVYVASRGL | 4
Cryptosporidium parvum glyceraldehyde 3-phosphate dehydrogenase, C153S active site mutant (enzyme, also called C153S mutant CpGAPDH; C153S CpGAPDH; source: E. coli, purified (Ni-NTA, SP Sepharose cation exchange, Superdex 200); not shown: His6, N-terminal, kept) MTATLGINGFGRIGRLVLRACMERNDITVVAINDPFMDVEYMAYLLKYDSVHGNFNGTVEVSGKDLCINGKVVKVFQAKDPAEIPWGASGAQIVCESTGVFTTEEKASLHLKGGAKKVIISAPPKDNVPMYVMGVNNTEYDPSKFNVISNASSTTNCLAPLAKIINDKFGIVEGLMTTVHSLTANQLTVDGPSKGGKDWRAGRCAGNNIIPASTGAAKAVGKVIPALNGKLTGMAIRVPTPDVSVVDLTCKLAKPASIEEIYQAVKEASNGPMKGIMGYTSDDVVSTDFIGCKYSSIFDKNACIALNDSFVKLISWYDNESGYSNRLVDLAVYVASRGL | 4
